This test has as its target T1, hIL-1R1 (Homo sapiens, UniProt P14778).
T1 construct: the cell suspension containing the mature Interleukin-1R1(21–337)-His6 was centrifuged; made in house; host or cells: HEK-ExpiGnti- cells (transient, secreted)
T1 sequence (P14778 21-337): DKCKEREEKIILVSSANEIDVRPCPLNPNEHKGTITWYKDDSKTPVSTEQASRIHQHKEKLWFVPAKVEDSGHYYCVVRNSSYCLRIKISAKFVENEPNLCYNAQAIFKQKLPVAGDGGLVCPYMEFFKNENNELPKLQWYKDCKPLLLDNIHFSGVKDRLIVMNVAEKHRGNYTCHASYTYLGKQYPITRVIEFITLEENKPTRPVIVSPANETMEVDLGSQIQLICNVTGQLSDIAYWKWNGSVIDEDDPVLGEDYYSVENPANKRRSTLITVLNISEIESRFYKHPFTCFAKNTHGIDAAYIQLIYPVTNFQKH
Nature of the test: SPR binding of IL-1β and V47A variant to immobilized IL-1R1. Conditions: source data, read-out: SPR binding to IL-1R1, individual experiments (Exp1-3). On the procedure: The receptor IL-1R1 was covalently immobilized to the chip surface of a CMD50L sensor by amine coupling. The coupling reagents (EDC/NHS and ethanolamine) were from Bruker. 1× PBS pH 7.5 (Gibco 70011-036, 10×), 0.05 % Tween-20 was used as running buffer. The chip surface was activated with a 3 min injection of EDC/NHS (200 mM 1-ethyl-3-(3-dimethylaminopropyl)-carbodiimide hydrochloride, 25 mM N-hydroxysuccinimide), followed by the protein injection of 0.02 mg/ml IL-1R1 diluted in 10 mM sodium acetate pH 5.0 for 3 min at 10 μl/min. The remaining active succinimides on the surface were deactivated by an injection of 1 M ethanolamine hydrochloride pH 8.5 over 3 min at 10 μl/min.
The injection of the protein dilution series was performed with 8 concentrations in SICK mode (single injection cycle kinetic) with a flow rate of 40 μl/min and 2 reference injections with buffer before and after the protein injection.
Data analysis was performed with the Sierra Analyzer 3.4.0 software from Bruker. Signal intensities were corrected for nonspecific binding to the surface by subtracting intensities from the reference surface from those of the hIL-1β surfaces (first reference subtraction) and by subtracting the buffer injection (second reference subtraction). […]
as se ss ed by SPR. Bindi ng of hI L-1b (a, b) and hI L-1bV47A (c, d) to hI L-1R1 monitored by SPR. […]

pKd: −log10 of the molar value. “And” between values parts separate entries of the source, which are not always exact repeats. Identical values can stand only once. Like-named read-outs stand apart in the source and are kept apart here.

Consider “hIL-1β: proteolytically processed mature human interleukin-1β, analyte in SPR on IL-1R1”, for which, under “listed as wt IL-1beta”, the pKd is 8.41 and 8.62.
As to “hIL-1β^V47A: hIL-1β variant with Val47 replaced by Ala”, the pKd (listed as IL-1beta V47A) was 8.47 and 8.37 and 8.40.

Values taken from paper PMC10484922, “Discovery of a selective and biologically active low-molecular weight antagonist of human interleukin-1β” (Nature Communications, 2023).
